Reference: PMC10681739, “High-throughput data and modeling reveal insights into the mechanisms of cooperative DNA-binding by transcription factor proteins”

T1: ETS1 (Homo sapiens, UniProt P14921)
T1 sequence: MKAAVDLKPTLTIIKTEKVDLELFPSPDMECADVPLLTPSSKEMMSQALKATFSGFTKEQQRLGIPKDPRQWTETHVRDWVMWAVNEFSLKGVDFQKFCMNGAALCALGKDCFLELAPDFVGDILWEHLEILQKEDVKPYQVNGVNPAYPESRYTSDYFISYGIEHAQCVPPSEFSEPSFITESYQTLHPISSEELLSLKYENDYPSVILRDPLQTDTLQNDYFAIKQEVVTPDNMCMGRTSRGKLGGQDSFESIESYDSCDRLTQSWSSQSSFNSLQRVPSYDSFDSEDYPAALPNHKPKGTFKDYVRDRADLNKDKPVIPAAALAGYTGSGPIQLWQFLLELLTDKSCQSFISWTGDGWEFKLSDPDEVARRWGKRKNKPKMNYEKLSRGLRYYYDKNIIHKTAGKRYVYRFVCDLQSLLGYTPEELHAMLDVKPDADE

B1: Table S2 C row 128 (dsDNA)
DNA 1: AAGATATGGGCTACTTGTGGTTTACTCTGTCTGCTA
DNA 2: TAGCAGACAGAGTAAACCACAAGTAGCCCATATCTT
B2: Table S2 C row 197 (dsDNA)
DNA 1: TTGAACTTAGTAGCAACCACACATGGCCATTATTTG
DNA 2: CAAATAATGGCCATGTGTGGTTGCTACTAAGTTCAA
B3: Table S2 C row 69 (dsDNA)
DNA 1: CTGGCAAAGCAGAAGTGTGGTTTCAGAGTCTCCCTC
DNA 2: GAGGGAGACTCTGAAACCACACTTCTGCTTTGCCAG
B4: Table S2 C row 133 (dsDNA)
DNA 1: TTGTAGGGATGACTGACCACAAAAGACAGTGACTCA
DNA 2: TGAGTCACTGTCTTTTGTGGTCAGTCATCCCTACAA
B5: Table S2 C row 2 (dsDNA)
DNA 1: GTGATGCCGACAGGCCGTGGTTTCTGAGAAACACCA
DNA 2: TGGTGTTTCTCAGAAACCACGGCCTGTCGGCATCAC
B6: Table S2 C row 175 (dsDNA)
DNA 1: CATCTCAAAGCCTCCTGTGGGTGGAGATGGAATGTG
DNA 2: CACATTCCATCTCCACCCACAGGAGGCTTTGAGATG
B7: Table S2 C row 60 (dsDNA)
DNA 1: AGACTCAGGTGGTAAACCGCAGGCCATTTACATACC
DNA 2: GGTATGTAAATGGCCTGCGGTTTACCACCTGAGTCT
B8: Table S2 C row 48 (dsDNA)
DNA 1: TTCAGAGTCAGATCTACCACACACAGCCCAGGAGCC
DNA 2: GGCTCCTGGGCTGTGTGTGGTAGATCTGACTCTGAA
B9: Table S2 C row 152 (dsDNA)
DNA 1: CTTTCATCTCTGACATGTGGCTTCTAAGGGTACACT
DNA 2: AGTGTACCCTTAGAAGCCACATGTCAGAGATGAAAG
B10: Table S2 C row 107 (dsDNA)
DNA 1: TGGCTGAGGGTCTTCTGTGGGTGGACGCATGATTAA
DNA 2: TTAATCATGCGTCCACCCACAGAAGACCCTCAGCCA
B11: Table S2 C row 27 (dsDNA)
DNA 1: AAAACAAGAACCAAAACCACAAGAACCACAAGAACC
DNA 2: GGTTCTTGTGGTTCTTGTGGTTTTGGTTCTTGTTTT
B12: Table S2 C row 46 (dsDNA)
DNA 1: GGTTTACAGCTCATTTGCGGCAGAATCAAAATGGCT
DNA 2: AGCCATTTTGATTCTGCCGCAAATGAGCTGTAAACC
B13: Table S2 C row 119 (dsDNA)
DNA 1: GGAAAGGTTGACGATAGTGGTTAAGTGGCTCGGCCT
DNA 2: AGGCCGAGCCACTTAACCACTATCGTCAACCTTTCC
B14: Table S2 C row 159 (dsDNA)
DNA 1: GGAGAGGAGAAAATGCCCACAGGGTACATGGAAAGC
DNA 2: GCTTTCCATGTACCCTGTGGGCATTTTCTCCTCTCC
B15: Table S2 C row 168 (dsDNA)
DNA 1: AACAGATACTCAAAAACCGCTGGCTGAACACATGGA
DNA 2: TCCATGTGTTCAGCCAGCGGTTTTTGAGTATCTGTT
B16: Table S2 C row 22 (dsDNA)
DNA 1: CTTGTTCAAGCAATTTGAGGTTTTTTAGGGAGGTTG
DNA 2: CAACCTCCCTAAAAAACCTCAAATTGCTTGAACAAG
B17: Table S2 C row 131 (dsDNA)
DNA 1: GAGGCATTATAGAAAACCGCAAGATTTTAGTCTGAG
DNA 2: CTCAGACTAAAATCTTGCGGTTTTCTATAATGCCTC
B18: Table S2 B row 1578 (dsDNA)
DNA 1: GGCTTCCTGCCCAACTACCAAGAAAAAGTCACAAAG
DNA 2: CTTTGTGACTTTTTCTTGGTAGTTGGGCAGGAAGCC
B19: Table S2 C row 58 (dsDNA)
DNA 1: CATCTGCAGACACTGTGTGGTTTCCAGGTTCCCGAG
DNA 2: CTCGGGAACCTGGAAACCACACAGTGTCTGCAGATG
B20: Table S2 C row 47 (dsDNA)
DNA 1: CCTACAAATTCCAGCTGTGGTCAGCTGGTGAGCTCT
DNA 2: AGAGCTCACCAGCTGACCACAGCTGGAATTTGTAGG
B21: Table S2 C row 85 (dsDNA)
DNA 1: TGTAATCTTTCTTAATGTGGTTAAATTCAAGTTATT
DNA 2: AATAACTTGAATTTAACCACATTAAGAAAGATTACA
B22: Table S2 C row 38 (dsDNA)
DNA 1: CAATTTAGCCTTTTAACCACTAAACTCCCTTGCCTA
DNA 2: TAGGCAAGGGAGTTTAGTGGTTAAAAGGCTAAATTG
B23: Table S2 C row 155 (dsDNA)
DNA 1: CTCTTTGGCCTTGTCTGTGGTTCTACCAAATCCCAT
DNA 2: ATGGGATTTGGTAGAACCACAGACAAGGCCAAAGAG
B24: Table S2 C row 125 (dsDNA)
DNA 1: CATTTCAGTAGACTCACCACAAGGTTGTGGCCAGAA
DNA 2: TTCTGGCCACAACCTTGTGGTGAGTCTACTGAAATG
B25: Table S2 C row 13 (dsDNA)
DNA 1: AACTCACTAGTGTTTTGAGGTTTTAATTGACACCAC
DNA 2: GTGGTGTCAATTAAAACCTCAAAACACTAGTGAGTT
B26: Table S2 B row 665 (dsDNA)
DNA 1: CTCCGTGCCACTACAGCCACTTCCTGCCTTGAAAAC
DNA 2: GTTTTCAAGGCAGGAAGTGGCTGTAGTGGCACGGAG
B27: Table S2 C row 82 (dsDNA)
DNA 1: ATTCTAAAATTGGACTGTGGTAAGGGTTGCACAACT
DNA 2: AGTTGTGCAACCCTTACCACAGTCCAATTTTAGAAT
B28: Table S2 C row 32 (dsDNA)
DNA 1: TAGTTGTATGTGGAAACCACAAAACTGAGTCATAAA
DNA 2: TTTATGACTCAGTTTTGTGGTTTCCACATACAACTA
B29: Table S2 C row 123 (dsDNA)
DNA 1: ATGCAGAAGGAATGCTGTGGTAGACAGCATTCCTTT
DNA 2: AAAGGAATGCTGTCTACCACAGCATTCCTTCTGCAT
B30: Table S2 C row 3 (dsDNA)
DNA 1: GCGAGAGCAGCAAGAACCACACCCAGCAGCAATGTC
DNA 2: GACATTGCTGCTGGGTGTGGTTCTTGCTGCTCTCGC
B31: Table S2 C row 153 (dsDNA)
DNA 1: GTAACAACACCAAGGACCACAAATGTGTATGTTGAA
DNA 2: TTCAACATACACATTTGTGGTCCTTGGTGTTGTTAC
B32: Table S2 C row 130 (dsDNA)
DNA 1: AATAATAGAGAAGACACCACAGTTGCCATGGTATTA
DNA 2: TAATACCATGGCAACTGTGGTGTCTTCTCTATTATT
B33: Table S2 C row 72 (dsDNA)
DNA 1: ACTACCTTCTTGGTAACCACAAGTCTCAGAGGTACT
DNA 2: AGTACCTCTGAGACTTGTGGTTACCAAGAAGGTAGT
B34: Table S2 C row 112 (dsDNA)
DNA 1: ACTGTCAAACATTCGACCACAATCTCTGAGGCTGGG
DNA 2: CCCAGCCTCAGAGATTGTGGTCGAATGTTTGACAGT
B35: Table S2 C row 33 (dsDNA)
DNA 1: ATCTCAGTTAAGCAGACCACACTTTACGTTCTAGTT
DNA 2: AACTAGAACGTAAAGTGTGGTCTGCTTAACTGAGAT
B36: Table S2 B row 1078 (dsDNA)
DNA 1: TGCAGCTTCCTGTCTGAGGCTTTTTGGTCCTTTCAT
DNA 2: ATGAAAGGACCAAAAAGCCTCAGACAGGAAGCTGCA
B37: Table S2 C row 134 (dsDNA)
DNA 1: AAGTCTACAGCTCTTTGAGGTTCATGTGTGACTCTA
DNA 2: TAGAGTCACACATGAACCTCAAAGAGCTGTAGACTT
B38: Table S2 C row 192 (dsDNA)
DNA 1: CAAGGTGGCAGTGATTGTGGCCGGCCACCTATCTGA
DNA 2: TCAGATAGGTGGCCGGCCACAATCACTGCCACCTTG
B39: Table S2 C row 23 (dsDNA)
DNA 1: GCTTTGCACAGCTTTGCCACAAAGCCCAGTCTGTGT
DNA 2: ACACAGACTGGGCTTTGTGGCAAAGCTGTGCAAAGC
B40: Table S2 C row 93 (dsDNA)
DNA 1: ATGCTGTCAAAAACTACCACAGACTGATTGGCTTAA
DNA 2: TTAAGCCAATCAGTCTGTGGTAGTTTTTGACAGCAT
B41: Table S2 C row 181 (dsDNA)
DNA 1: CACAGGCAGTTCCAGACCGCAGCCTTCCAGGGCCCT
DNA 2: AGGGCCCTGGAAGGCTGCGGTCTGGAACTGCCTGTG
B42: Table S2 C row 100 (dsDNA)
DNA 1: AGATGAATCACAGAGACCACACATGGAGACCCATCT
DNA 2: AGATGGGTCTCCATGTGTGGTCTCTGTGATTCATCT

Target: T1, ETS1
Test: gcPBM; 1 nM ETS1
Settings: tags: N-terminal GST (pDEST15), kept (PMC6008103); label: surface-attached array probe

Binder | binding signal
B1 | 392 PBM fluorescence, median of replicate spots
B2 | 416 PBM fluorescence, median of replicate spots
B3 | 405 PBM fluorescence, median of replicate spots
B4 | 398 PBM fluorescence, median of replicate spots
B5 | 392 PBM fluorescence, median of replicate spots
B6 | 414 PBM fluorescence, median of replicate spots
B7 | 408 PBM fluorescence, median of replicate spots
B8 | 393 PBM fluorescence, median of replicate spots
B9 | 421 PBM fluorescence, median of replicate spots
B10 | 417 PBM fluorescence, median of replicate spots
B11 | 420 PBM fluorescence, median of replicate spots
B12 | 392 PBM fluorescence, median of replicate spots
B13 | 429 PBM fluorescence, median of replicate spots
B14 | 409 PBM fluorescence, median of replicate spots
B15 | 425 PBM fluorescence, median of replicate spots
B16 | 428 PBM fluorescence, median of replicate spots
B17 | 420 PBM fluorescence, median of replicate spots
B18 | 12500 PBM fluorescence, median of replicate spots
B19 | 406 PBM fluorescence, median of replicate spots
B20 | 408 PBM fluorescence, median of replicate spots
B21 | 407 PBM fluorescence, median of replicate spots

Binder | binding signal
B22 | 426 PBM fluorescence, median of replicate spots
B23 | 414 PBM fluorescence, median of replicate spots
B24 | 399 PBM fluorescence, median of replicate spots
B25 | 420 PBM fluorescence, median of replicate spots
B26 | 13300 PBM fluorescence, median of replicate spots
B27 | 420 PBM fluorescence, median of replicate spots
B28 | 395 PBM fluorescence, median of replicate spots
B29 | 407 PBM fluorescence, median of replicate spots
B30 | 422 PBM fluorescence, median of replicate spots
B31 | 421 PBM fluorescence, median of replicate spots
B32 | 414 PBM fluorescence, median of replicate spots
B33 | 394 PBM fluorescence, median of replicate spots
B34 | 409 PBM fluorescence, median of replicate spots
B35 | 393 PBM fluorescence, median of replicate spots
B36 | 12900 PBM fluorescence, median of replicate spots
B37 | 394 PBM fluorescence, median of replicate spots
B38 | 408 PBM fluorescence, median of replicate spots
B39 | 399 PBM fluorescence, median of replicate spots
B40 | 399 PBM fluorescence, median of replicate spots
B41 | 391 PBM fluorescence, median of replicate spots
B42 | 403 PBM fluorescence, median of replicate spots
